Target: 6xHis-N-WASP (UniProt O00401)
Sequence of UniProt O00401 (O00401 whole entry): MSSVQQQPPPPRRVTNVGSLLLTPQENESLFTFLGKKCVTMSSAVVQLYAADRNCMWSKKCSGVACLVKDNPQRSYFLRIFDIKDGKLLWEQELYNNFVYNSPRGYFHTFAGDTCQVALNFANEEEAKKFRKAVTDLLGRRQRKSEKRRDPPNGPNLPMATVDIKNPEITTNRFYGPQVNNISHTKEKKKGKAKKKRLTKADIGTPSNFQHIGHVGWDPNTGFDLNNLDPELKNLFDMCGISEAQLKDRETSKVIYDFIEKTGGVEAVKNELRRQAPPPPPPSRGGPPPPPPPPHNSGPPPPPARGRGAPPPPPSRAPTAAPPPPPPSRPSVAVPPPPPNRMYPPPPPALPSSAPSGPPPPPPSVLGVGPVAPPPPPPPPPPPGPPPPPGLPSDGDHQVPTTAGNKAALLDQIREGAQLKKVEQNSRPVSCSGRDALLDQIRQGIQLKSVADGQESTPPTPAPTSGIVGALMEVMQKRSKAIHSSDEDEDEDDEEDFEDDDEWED

Substance purified native MirA (natural protein) has a pyrene actin (1 µM, 10% labeled) polymerization with Arp2/3 complex (50 nM), N-WASP (200 nM) and increasing MirA; MirA concentration for half-maximum activity (time to half-maximum fluorescence) of 60 nM.

Source: publication PMC9232537
